# Source: patent publication US20130302347A1 (Genentech, published 2013)
# B1: FLAG-IGFL1 (recombinant human IGFL1 with FLAG epitope tag) (ligand)
# chain: APVAPMTPYLMLCQPHKRCGDKFYDPLQHCCYDDAVVPLARTQTCGNCTFRVCFEQCCPWTFMVKLINQNCDSARTSDDRLCRSVS
# notes: Made in CHO cells; Signal peptide cleavage is predicted only; also called hIGFL1; IGFL1-FLAG; not shown: printed both as FLAG-IGFL1 and IGFL1-FLAG, so the end that carries the tag is not
# B2: FLAG-IGFL2 (recombinant human IGFL2 with FLAG epitope tag) (ligand, not shown: small tags and cut ends)
# chain: PAGSEPWLCQPAPRCGDKIYNPLEQCCYNDAIVSLSETRQCGPPCTFWPCFELCCLDSFGLTNDFVVKLKVQGVNSQCHSSPISSKCESRRRFP
# notes: Signal peptide cleavage is predicted only
# B3: GITRL (ligand, UniProt Q9UNG2 52-177, looked up)
# chain: ETAKEPCMAKFGPLPSKWQMASSEPPCVNKVSDWKLEILQNGLYLIYGQVAPNANYNDVAPFEVRLYKNKDMIQTLTNKSKIQNVGGTYELHVGDTIDLIFNSEHQVLKNNTYWGIILLANPQFIS
# B4: OX40L (ligand, UniProt P23510 51-183, looked up)
# chain: QVSHRYPRIQSIKVQFTEYKKEKGFILTSQKEDEIMKVQNNSVIINCDGFYLISLKGYFSQEVNISLHYQKDEEPLFQLKKVRSVNSLMVASLTYKDKVYLNVTTDNTSLDDFHVNGGELILIHQNPGEFCVL
# B5: FLAG-IGFL3 (recombinant human IGFL3 with FLAG epitope tag) (ligand, not shown: small tags and cut ends)
# chain: TTDAPVGSGLWLCQPTPRCGNKIYNPSEQCCYDDAILSLKETRRCGSTCTFWPCFELCCPESFGPQQKFLVKLRVLGMKSQCHLSPISRSCTRNRRHVLYP
# notes: also called hIGFL3
# B6: FLAG-IGFL4 (recombinant human IGFL4 with FLAG epitope tag) (ligand, not shown: small tags and cut ends)
# chain: EGVTDLRLWLCQPAPRCGEWTYNPLEQCCDDGVILDLNQTRLCGSSCTFWPCFQHCCLESLGSQNQTVVRFKVPGMKPDCKSSPITRICAQEYHPKSPVSRSDLI
# Experiments:
# [1] = target: T1, nerve growth factor receptor (NGFR) on transfected 293T cells (UniProt P08138 29-427, limits assumed); assay: flow cytometry of transfected 293T cells, FLAG-IGFL1 detected with fluorescent anti-FLAG
# T1 construct: whole, on cells
# T1 sequence (looked up): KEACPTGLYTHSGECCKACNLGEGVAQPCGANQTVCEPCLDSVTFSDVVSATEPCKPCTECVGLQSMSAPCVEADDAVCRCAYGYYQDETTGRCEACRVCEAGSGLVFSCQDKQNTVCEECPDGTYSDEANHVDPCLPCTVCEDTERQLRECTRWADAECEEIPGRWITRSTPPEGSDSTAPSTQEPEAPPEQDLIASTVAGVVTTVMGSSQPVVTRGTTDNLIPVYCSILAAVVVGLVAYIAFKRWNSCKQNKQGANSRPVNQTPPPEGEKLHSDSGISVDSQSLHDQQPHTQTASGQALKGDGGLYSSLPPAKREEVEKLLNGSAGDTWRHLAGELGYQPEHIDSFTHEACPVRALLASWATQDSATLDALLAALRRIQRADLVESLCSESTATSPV
# [2] = target: T2, DR4 on transfected 293T cells (UniProt O00220 24-468, limits assumed); assay: as above
# T2 construct: whole, on cells
# T2 sequence (looked up): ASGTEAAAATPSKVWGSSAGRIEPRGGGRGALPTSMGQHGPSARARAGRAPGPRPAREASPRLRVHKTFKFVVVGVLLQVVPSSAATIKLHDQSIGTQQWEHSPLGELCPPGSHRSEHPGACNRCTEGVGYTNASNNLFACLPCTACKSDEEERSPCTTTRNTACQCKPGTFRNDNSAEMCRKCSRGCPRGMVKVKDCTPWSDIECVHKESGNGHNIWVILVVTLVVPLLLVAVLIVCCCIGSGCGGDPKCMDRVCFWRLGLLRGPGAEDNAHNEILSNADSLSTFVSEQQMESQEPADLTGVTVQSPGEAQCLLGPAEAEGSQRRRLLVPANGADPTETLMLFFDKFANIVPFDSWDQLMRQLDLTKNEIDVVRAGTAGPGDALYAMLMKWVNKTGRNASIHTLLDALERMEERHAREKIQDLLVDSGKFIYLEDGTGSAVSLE
# [3] = target: T3, TMEM149-Fc (human TMEM149 extracellular domain with C-terminal human IgG1 Fc) (human, UniProt Q9H665 23-160); assay: SPR (BiaCore 3000); TMEM149-Fc captured by anti-human IgG, 1:1 Langmuir fit
# T3 construct: also called recombinant human TMEM149-Fc; Fc-TMEM149; not shown: human IgG1 Fc, C-terminal
# T3 sequence: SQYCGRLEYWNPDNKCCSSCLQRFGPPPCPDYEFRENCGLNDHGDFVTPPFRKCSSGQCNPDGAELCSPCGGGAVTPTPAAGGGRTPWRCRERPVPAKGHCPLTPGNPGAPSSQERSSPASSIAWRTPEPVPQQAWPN
# Method: (§1) Surface plasmon resonance (SPR) was run on a BiaCore 3000 (GE healthcare, Piscataway, N.J.) at 25° C. using anti-human IgG F(ab′)₂ (Jackson Immunoresearch, West Grove, Pa.) amine-coupled to BiaCore CM5 sensor chips. For kinetic analysis of protein interactions, Fc-fusion proteins at 25 μg/ml were first captured onto sensor chips by injecting them for 3 min at 5 μl/min. Then, test proteins diluted to their indicated concentrations in HBS-P buffer (0.01 M Hepes, pH 7.4 0.15 M NaCl 0.005% Surfactant P20) were injected for 3 min at 30 μl/min. Dissociation in HBS-P buffer alone was then measured at a flow rate of […]. Sensor chips surfaces were regenerated by injecting 10 mM glycine pH 1.5 for 30 s after each cycle. Kinetic parameters were determined by fitting the data to a 1:1 Langmuir model using the Biacore 3000 evaluation software (GE Healthcare).
# [4] = target: T4, Human TMEM149 on the cell surface (transfected HEK293T cells; human leukocytes) (human, UniProt Q9H665 23-355); assay: radioligand competition assay; 125I-FLAG-IGFL1 against unlabelled ligand on HEK293T cells stably expressing human TMEM149
# T4 construct: also called hTMEM149; MK61
# T4 sequence: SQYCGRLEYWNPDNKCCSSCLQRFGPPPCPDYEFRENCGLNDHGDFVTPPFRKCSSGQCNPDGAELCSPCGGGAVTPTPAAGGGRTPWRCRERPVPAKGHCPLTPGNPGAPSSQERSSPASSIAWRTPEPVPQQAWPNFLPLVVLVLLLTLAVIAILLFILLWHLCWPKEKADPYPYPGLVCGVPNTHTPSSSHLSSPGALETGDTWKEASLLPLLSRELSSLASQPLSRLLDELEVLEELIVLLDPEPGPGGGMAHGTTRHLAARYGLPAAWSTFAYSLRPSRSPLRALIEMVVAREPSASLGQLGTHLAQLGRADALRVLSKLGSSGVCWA
# Method: (§2) To determine the affinity of IGFL with TMEM149, ligands were iodinated with ¹²⁵I using the lactoperoxidase method and free ¹²⁵I-Na was removed from the labeled protein by gel filtration using a NAP-5 column. 50 μL competition reaction mixtures containing a fixed concentration of iodinated ligand and decreasing concentrations of serially diluted, unlabeled ligand were placed into 96-well plates in triplicate. To each well, HEK293T cells stably expressing human or mouse TMEM149 were added at a density of 100,000 cells in 0.2 mL of binding buffer (Dulbecco's Modified Eagle Medium with 1% bovine serum albumin, 50 mM HEPES pH 7.2 and 2 mM sodium azide). The final concentration of the iodinated ligand with cells in each competition reaction was 100 pM (100,000 cpms per 0.25 mL). The final concentration of the unlabeled ligand with cells in the competition reaction varied, starting at 500 nM and then decreasing by 1- to 2-fold dilution for ten concentrations, and included a zero-added, buffer-only sample. Competition reactions were incubated for 2 hours at room temperature, then transferred to a Millipore Multiscreen filter plate (Billerica, Mass.) and washed 4 times with binding buffer to separate the free from bound iodinated antibody. The filters were counted on a Wallac Wizard 1470 gamma counter (PerkinElmer Life and Analytical Sciences Inc.; Wellesley, Mass.).
# [5] = target: T4, Human TMEM149 on the cell surface …; assay: radioligand competition: 125I-FLAG-IGFL1 (100 pM) on HEK293T cells expressing human TMEM149, unlabelled FLAG-IGFL1 varied
# Method: B) FACS analysis of IFGL1 binding to cells expressing surface TMEM149. […] Reference is made to Examples 10 and 11.
# as §2, with “Competition reactions were incubated for 2 hours at room temperature, then transferred to a Millipore Multiscreen filter plate (Billerica, Mass.) and washed 4 times with binding buffer to separate the free from bound iodinated antibody.” left out
# [6] = target: T3, TMEM149-Fc (human TMEM149 extracellular …); assay: SPR, binding to immobilised TMEM149-Fc (7,145 RU per paragraph 67)
# Method: as §1
# [7] = target: T3, TMEM149-Fc (human TMEM149 extracellular …); assay: SPR screen of TNF-like ligands
# Method: as §1
# [8] = target: T3, TMEM149-Fc (human TMEM149 extracellular …); assay: SPR, TMEM149-Fc captured on the chip
# Method: as §1
# [9] = target: T1, nerve growth factor receptor (NGFR) on …; assay: flow cytometry of transfected 293T cells, FLAG-IGFL3 detected with fluorescent anti-FLAG
# [10] = target: T2, DR4 on transfected 293T cells; assay: as above
binder,measurement,setting,value
B1,binding result,[1],no binding
same,binding result,[2],no binding
same,Kd,[3],1200 pM
same,Kd,[4],310 pM
same,IC50 (read off the curve),[5],~500 pM
B2,binding result,[6],binds
B3,binding result,[7],no binding
B4,binding result,[7],no binding
B5,Kd,[8],80 pM
same,binding result,[9],no binding
same,binding result,[10],no binding
B6,binding result,[6],no binding (tested: 108 µg/ml)
